Measured values: publication PMC11325027
Values joined by “and” are separate entries in the source; they are usually repeats but may differ in a detail not shown here. Equal entries are not always repeated.

What was measured:
[1] = biological target: E. coli initiation factor 2 (IF2) (E. coli) (UniProt P0A705); assay: BLI; biotinylated protein ([…] load) immobilised on High Precision Streptavidin (SAX) tips, E. coli 70S ribosome as analyte; Octet RED96e, 30 °C, 1,000 rpm; ribosome buffer 20 mM Tris HCl pH 7.5, 60 mM NH4Cl, 7.5 mM Mg(CH3COO)2, 0.5 mM EDTA, 6 mM βME with 0.1% BSA and 0.02% Tween-20; IF2 pre-incubated with GDPNP; Kd from the fit of equilibrium responses, double-referenced
[2] = biological target: P. falciparum translation enhancing factor C-terminal domain (PTEF-CTD) (P. falciparum); assay: as above

## E. coli 70S ribosome (complex)
[1]
  Kd: 9.3 nM and 2.7 nM and 1.5 nM
[2]
  Kd: 426 nM and 313 nM and 515 nM
